Consider 13 molecules from patent publication US20250276075A1, “METHODS OF TREATING AXL-EXPRESSING CANCERS WITH ANTI-AXL ANTIBODIES, ANTIBODY FRAGMENTS AND THEIR IMMUNOCONJUGATES” (BIOATLA, INC., priority 2020, published 2025).

Experiment [1] deals with Axl (UniProt P30530). In words: ELISA, 1:3 dilution. For orientation: ELISA stands for enzyme-linked immunosorbent assay.
Experiment [2] deals with Axl (UniProt P30530). The experiment is described as follows: ELISA, 1:9 dilution.
Experiment [3] concerns the target T1, Axl (Homo sapiens, UniProt P30530).
T1 sequence (P30530 26-451 limits assumed): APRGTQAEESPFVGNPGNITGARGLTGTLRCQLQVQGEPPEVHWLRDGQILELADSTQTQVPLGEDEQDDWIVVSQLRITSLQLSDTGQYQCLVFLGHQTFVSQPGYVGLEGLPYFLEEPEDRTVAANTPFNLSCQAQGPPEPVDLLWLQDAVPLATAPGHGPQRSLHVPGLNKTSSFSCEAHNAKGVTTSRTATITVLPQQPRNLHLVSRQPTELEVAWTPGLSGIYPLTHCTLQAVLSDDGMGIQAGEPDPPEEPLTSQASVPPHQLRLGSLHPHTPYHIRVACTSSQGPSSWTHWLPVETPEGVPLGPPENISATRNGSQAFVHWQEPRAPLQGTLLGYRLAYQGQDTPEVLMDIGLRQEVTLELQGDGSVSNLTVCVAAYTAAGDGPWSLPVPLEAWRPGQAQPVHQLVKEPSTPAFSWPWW
The experiment is described as follows: Affinity ELISA of CPE mutant antibodies for binding to Axl at pH 6.0 over pH 7.4. To be noted: for Affinity ELISA CPE mutant ratio (1:3, pH 6.0/7.4): 1:3 dilution; for Affinity ELISA CPE mutant ratio (1:9, pH 6.0/7.4): 1:9 dilution. In outline:
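Single-point mutant anti-Axl antibody library (CPE) screened by ELISA for binding at pH 6.0 versus pH 7.4, at 1:3 and 1:9 antibody dilutions, in serum with FLAG-tag detection and carbonate (Krebs-Ringer) buffer. Selection criterion: pH 6.0/pH 7.4 binding ratio ≥1.5 at either dilution.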

[4] abbreviates: light chain variable region mutants.
Where [5] appears, read: heavy chain variable region mutants.

B1: LC-P095C (antibody, V domains shown)
VH: EVQLVQSGAEVKKPGATVKISCKVSGYSFTGHTMNWIRQPPGKGLEWIGLIKPSNGGTSYNQKFKGRVTISADKSISTAYLQWSSLKASDTAMYYCAHGHYESYFAMDYWGQGTLVTVSS
VL: DIQMTQSPSSLSASVGDRVTITCKASQDVSSAVAWYQQKPGQAPRLLIYWASTRHTGVPSRFSGSGSGTEFTLTISSLQPDDFATYYCQEHFSTCLTFGQGTKVEIK
Turning to B1, the Affinity ELISA CPE mutant ratio (1:3, pH 6.0/7.4) with Axl [1] was 2.35; in the experiment with Axl [3] (setting [4]), 2.350. For the same molecule, the Affinity ELISA CPE mutant ratio (1:9, pH 6.0/7.4) in the experiment with Axl [2] stood at 2.63; with Axl [3] (setting [4]), 2.630.

B2: LC-P095E (antibody, V domains shown)
VH: EVQLVQSGAEVKKPGATVKISCKVSGYSFTGHTMNWIRQPPGKGLEWIGLIKPSNGGTSYNQKFKGRVTISADKSISTAYLQWSSLKASDTAMYYCAHGHYESYFAMDYWGQGTLVTVSS
VL: DIQMTQSPSSLSASVGDRVTITCKASQDVSSAVAWYQQKPGQAPRLLIYWASTRHTGVPSRFSGSGSGTEFTLTISSLQPDDFATYYCQEHFSTELTFGQGTKVEIK
As to B2, the Affinity ELISA CPE mutant ratio (1:3, pH 6.0/7.4) was found to be 7.12 in the experiment with Axl [1] and 7.121 in the experiment with Axl [3] (setting [4]). Further, the Affinity ELISA CPE mutant ratio (1:9, pH 6.0/7.4) turned out to be 7.51 in the experiment with Axl [2] and 7.511 with Axl [3] (setting [4]).

B3: HC-S059I (antibody, V domains shown)
VH: EVQLVQSGAEVKKPGATVKISCKVSGYSFTGHTMNWIRQPPGKGLEWIGLIKPSNGGTIYNQKFKGRVTISADKSISTAYLQWSSLKASDTAMYYCAHGHYESYFAMDYWGQGTLVTVSS
VL: DIQMTQSPSSLSASVGDRVTITCKASQDVSSAVAWYQQKPGQAPRLLIYWASTRHTGVPSRFSGSGSGTEFTLTISSLQPDDFATYYCQEHFSTPLTFGQGTKVEIK
For the molecule B3, the Affinity ELISA CPE mutant ratio (1:3, pH 6.0/7.4) in the experiment with Axl [1] worked out at 30.5; in the experiment with Axl [3] (setting [5]) it was 30.492. Besides, the results for the Affinity ELISA CPE mutant ratio (1:9, pH 6.0/7.4) with Axl [2] and with Axl [3] (setting [5]) were 2.06 and 2.055, respectively.

B4: LC-H091Q (antibody, V domains shown)
VH: EVQLVQSGAEVKKPGATVKISCKVSGYSFTGHTMNWIRQPPGKGLEWIGLIKPSNGGTSYNQKFKGRVTISADKSISTAYLQWSSLKASDTAMYYCAHGHYESYFAMDYWGQGTLVTVSS
VL: DIQMTQSPSSLSASVGDRVTITCKASQDVSSAVAWYQQKPGQAPRLLIYWASTRHTGVPSRFSGSGSGTEFTLTISSLQPDDFATYYCQEQFSTPLTFGQGTKVEIK
For B4, the Affinity ELISA CPE mutant ratio (1:3, pH 6.0/7.4) in the experiment with Axl [1] was 1.77; in the experiment with Axl [3] (setting [4]), 1.770. Also, the Affinity ELISA CPE mutant ratio (1:9, pH 6.0/7.4) in the experiment with Axl [2] is 2.01; in the experiment with Axl [3] (setting [4]) it was 2.010.

B5: LC-P095H (antibody, V domains shown)
VH: EVQLVQSGAEVKKPGATVKISCKVSGYSFTGHTMNWIRQPPGKGLEWIGLIKPSNGGTSYNQKFKGRVTISADKSISTAYLQWSSLKASDTAMYYCAHGHYESYFAMDYWGQGTLVTVSS
VL: DIQMTQSPSSLSASVGDRVTITCKASQDVSSAVAWYQQKPGQAPRLLIYWASTRHTGVPSRFSGSGSGTEFTLTISSLQPDDFATYYCQEHFSTHLTFGQGTKVEIK
B5: the Affinity ELISA CPE mutant ratio (1:3, pH 6.0/7.4) was found to be 2.5 with Axl [1] and 2.504 with Axl [3] (setting [4]). Also, the Affinity ELISA CPE mutant ratio (1:9, pH 6.0/7.4) with Axl [2] stood at 2.75; with Axl [3] (setting [4]), 2.754.

B6: LC-H091F (antibody, V domains shown)
VH: EVQLVQSGAEVKKPGATVKISCKVSGYSFTGHTMNWIRQPPGKGLEWIGLIKPSNGGTSYNQKFKGRVTISADKSISTAYLQWSSLKASDTAMYYCAHGHYESYFAMDYWGQGTLVTVSS
VL: DIQMTQSPSSLSASVGDRVTITCKASQDVSSAVAWYQQKPGQAPRLLIYWASTRHTGVPSRFSGSGSGTEFTLTISSLQPDDFATYYCQEFFSTPLTFGQGTKVEIK
On to B6, for which the Affinity ELISA CPE mutant ratio (1:3, pH 6.0/7.4) with Axl [1] worked out at 1.6; with Axl [3] (setting [4]) it was 1.603. The Affinity ELISA CPE mutant ratio (1:9, pH 6.0/7.4) with Axl [2] came out at 2.12; with Axl [3] (setting [4]) it was 2.116.

B7: LC-L096G (antibody, V domains shown)
VH: EVQLVQSGAEVKKPGATVKISCKVSGYSFTGHTMNWIRQPPGKGLEWIGLIKPSNGGTSYNQKFKGRVTISADKSISTAYLQWSSLKASDTAMYYCAHGHYESYFAMDYWGQGTLVTVSS
VL: DIQMTQSPSSLSASVGDRVTITCKASQDVSSAVAWYQQKPGQAPRLLIYWASTRHTGVPSRFSGSGSGTEFTLTISSLQPDDFATYYCQEHFSTPGTFGQGTKVEIK
Turning to B7, the Affinity ELISA CPE mutant ratio (1:3, pH 6.0/7.4) with Axl [1] is 2.17; in the experiment with Axl [3] (setting [4]), 2.165. The Affinity ELISA CPE mutant ratio (1:9, pH 6.0/7.4) in the experiment with Axl [2] is 2.44; with Axl [3] (setting [4]), 2.436.

B8: LC-P095D (antibody, V domains shown)
VH: EVQLVQSGAEVKKPGATVKISCKVSGYSFTGHTMNWIRQPPGKGLEWIGLIKPSNGGTSYNQKFKGRVTISADKSISTAYLQWSSLKASDTAMYYCAHGHYESYFAMDYWGQGTLVTVSS
VL: DIQMTQSPSSLSASVGDRVTITCKASQDVSSAVAWYQQKPGQAPRLLIYWASTRHTGVPSRFSGSGSGTEFTLTISSLQPDDFATYYCQEHFSTDLTFGQGTKVEIK
As to B8, the Affinity ELISA CPE mutant ratio (1:3, pH 6.0/7.4) was found to be 3.95 with Axl [1] and 3.949 in the experiment with Axl [3] (setting [4]). In addition, the Affinity ELISA CPE mutant ratio (1:9, pH 6.0/7.4) with Axl [2] came out at 2.89; with Axl [3] (setting [4]) it was 2.889.

B9: LC-H091L (antibody, V domains shown)
VH: EVQLVQSGAEVKKPGATVKISCKVSGYSFTGHTMNWIRQPPGKGLEWIGLIKPSNGGTSYNQKFKGRVTISADKSISTAYLQWSSLKASDTAMYYCAHGHYESYFAMDYWGQGTLVTVSS
VL: DIQMTQSPSSLSASVGDRVTITCKASQDVSSAVAWYQQKPGQAPRLLIYWASTRHTGVPSRFSGSGSGTEFTLTISSLQPDDFATYYCQELFSTPLTFGQGTKVEIK
Take B9: the figures for the Affinity ELISA CPE mutant ratio (1:3, pH 6.0/7.4) with Axl [1] and in the experiment with Axl [3] (setting [4]) were 2.8 and 2.798, respectively. In addition, the Affinity ELISA CPE mutant ratio (1:9, pH 6.0/7.4) in the experiment with Axl [2] worked out at 2.08; with Axl [3] (setting [4]) it was 2.081.

B10: LC-P095S (antibody, V domains shown)
VH: EVQLVQSGAEVKKPGATVKISCKVSGYSFTGHTMNWIRQPPGKGLEWIGLIKPSNGGTSYNQKFKGRVTISADKSISTAYLQWSSLKASDTAMYYCAHGHYESYFAMDYWGQGTLVTVSS
VL: DIQMTQSPSSLSASVGDRVTITCKASQDVSSAVAWYQQKPGQAPRLLIYWASTRHTGVPSRFSGSGSGTEFTLTISSLQPDDFATYYCQEHFSTSLTFGQGTKVEIK
In the case of B10, the values for the Affinity ELISA CPE mutant ratio (1:3, pH 6.0/7.4) with Axl [1] and with Axl [3] (setting [4]) were 2.84 and 2.841, respectively. Besides, the results for the Affinity ELISA CPE mutant ratio (1:9, pH 6.0/7.4) with Axl [2] and in the experiment with Axl [3] (setting [4]) were 3.51 and 3.512, respectively.

B11: LC-P095K (antibody, V domains shown)
VH: EVQLVQSGAEVKKPGATVKISCKVSGYSFTGHTMNWIRQPPGKGLEWIGLIKPSNGGTSYNQKFKGRVTISADKSISTAYLQWSSLKASDTAMYYCAHGHYESYFAMDYWGQGTLVTVSS
VL: DIQMTQSPSSLSASVGDRVTITCKASQDVSSAVAWYQQKPGQAPRLLIYWASTRHTGVPSRFSGSGSGTEFTLTISSLQPDDFATYYCQEHFSTKLTFGQGTKVEIK
As for B11, the Affinity ELISA CPE mutant ratio (1:3, pH 6.0/7.4) in the experiment with Axl [1] stood at 3.84; with Axl [3] (setting [4]) it was 3.840. The Affinity ELISA CPE mutant ratio (1:9, pH 6.0/7.4) with Axl [2] is 3.47; in the experiment with Axl [3] (setting [4]) it was 3.468.

B12: LC-H091C (antibody, V domains shown)
VH: EVQLVQSGAEVKKPGATVKISCKVSGYSFTGHTMNWIRQPPGKGLEWIGLIKPSNGGTSYNQKFKGRVTISADKSISTAYLQWSSLKASDTAMYYCAHGHYESYFAMDYWGQGTLVTVSS
VL: DIQMTQSPSSLSASVGDRVTITCKASQDVSSAVAWYQQKPGQAPRLLIYWASTRHTGVPSRFSGSGSGTEFTLTISSLQPDDFATYYCQECFSTPLTFGQGTKVEIK
As for B12, the Affinity ELISA CPE mutant ratio (1:3, pH 6.0/7.4) with Axl [1] was found to be 4; in the experiment with Axl [3] (setting [4]) it was 4.003. The values for the Affinity ELISA CPE mutant ratio (1:9, pH 6.0/7.4) with Axl [2] and with Axl [3] (setting [4]) were 3.02 and 3.025, respectively.

B13: LC-H091I (antibody, V domains shown)
VH: EVQLVQSGAEVKKPGATVKISCKVSGYSFTGHTMNWIRQPPGKGLEWIGLIKPSNGGTSYNQKFKGRVTISADKSISTAYLQWSSLKASDTAMYYCAHGHYESYFAMDYWGQGTLVTVSS
VL: DIQMTQSPSSLSASVGDRVTITCKASQDVSSAVAWYQQKPGQAPRLLIYWASTRHTGVPSRFSGSGSGTEFTLTISSLQPDDFATYYCQEIFSTPLTFGQGTKVEIK
Take B13: the Affinity ELISA CPE mutant ratio (1:3, pH 6.0/7.4) with Axl [1] came out at 1.55; in the experiment with Axl [3] (setting [4]), 1.550. The results for the Affinity ELISA CPE mutant ratio (1:9, pH 6.0/7.4) with Axl [2] and with Axl [3] (setting [4]) were 2.15 and 2.154, respectively.
